Assay results: US20140314668A1, “TECHNETIUM-99M LABELED COMPLEX OF GOLD NANOPARTICLE-GOLD BINDING PEPTIDES, AND METHOD OF MAKING AND USING THE SAME” (Korea Atomic Energy Research Institute, priority 2013, published 2014)

Experiment: NaCl-induced aggregation method (adsorption of GBP1 on the surface of GNPs, UV-Vis)
Assay type: physicochemical
Experimental: In order to investigate a minimum concentration of GBP1 required for complete adsorption on the surface of gold nanoparticles (GNPs), since it is known that salts such as NaCl induce aggregation of gold and other nanoparitices (H.M.L. M. Y. Lin et al, Nature, 339, 1989, 360-362), an NaCl-induced aggregation method was used, and concentration of GBP1 adsorbed on the surface of GNPs was analyzed.
A variety of concentrations of GBP1 were added to 0.5 mL of GNP solution (O.D.=1.0, D=10 nm) to form a mixture, followed by standing for 10 minutes at room temperature. Next, 10% NaCl solution was added to the mixture so as to have a final concentration of 0.5% in order to induce aggregation of GNPs, followed by standing for 10 minutes at room temperature. Subsequently, in order to protect additional aggregation, 0.1% BSA was added to the resultant, followed by standing for 10 minutes at room temperature. Finally, aggregation degree of GNPs was measured in a wavelength range of 220 to 700 nm by UV-Vis spectrophotometer, and the measurement results are shown in FIG. 1.

## GBP1: synthetic gold binding peptide 1, amino acid sequence (SEQ ID No. 1): MHGKTQATSGTIQS (GBP1)
0.5 mL GNP solution (O.D.=1.0, D=10 nm), 0.5% NaCl final, room temperature
  GBP1 concentration at which aggregation of GNPs is prevented: more than 10 μg/ml
GBP1 concentration of 10 μg/ml or less, in the presence of NaCl
  main surface plasmon band of the GNP solution (red-shifted): 525 nm
